Results: patent publication US20200157519A1 (IMMUNWORK, published 2020)

Legend:
mouse fibrinogen = molecular target: T1, mouse fibrinogen (mouse, UniProt E9PV24 20-557; Q8K0E8 20-481; Q8VCM7 26-436, limits assumed); experiment: ELISA on coated plate, HRP-protein L detection
T1 construct: Bought protein; also called fibrinogen from mouse (Sigma)
T1 sequence (looked up) 1: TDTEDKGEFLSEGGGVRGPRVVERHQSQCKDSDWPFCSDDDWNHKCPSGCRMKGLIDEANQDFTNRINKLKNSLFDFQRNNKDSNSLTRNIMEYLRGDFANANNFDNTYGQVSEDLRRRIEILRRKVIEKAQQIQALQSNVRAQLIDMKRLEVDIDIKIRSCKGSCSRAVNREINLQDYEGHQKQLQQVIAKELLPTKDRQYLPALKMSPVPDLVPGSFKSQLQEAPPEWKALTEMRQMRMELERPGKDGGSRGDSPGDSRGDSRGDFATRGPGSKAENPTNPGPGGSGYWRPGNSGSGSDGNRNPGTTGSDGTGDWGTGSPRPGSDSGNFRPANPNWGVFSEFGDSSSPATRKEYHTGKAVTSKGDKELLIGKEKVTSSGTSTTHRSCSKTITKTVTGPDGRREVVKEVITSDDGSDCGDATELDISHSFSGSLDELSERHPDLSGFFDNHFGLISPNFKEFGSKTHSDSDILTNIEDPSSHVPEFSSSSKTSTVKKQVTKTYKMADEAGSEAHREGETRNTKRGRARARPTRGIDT
T1 sequence (looked up) 2: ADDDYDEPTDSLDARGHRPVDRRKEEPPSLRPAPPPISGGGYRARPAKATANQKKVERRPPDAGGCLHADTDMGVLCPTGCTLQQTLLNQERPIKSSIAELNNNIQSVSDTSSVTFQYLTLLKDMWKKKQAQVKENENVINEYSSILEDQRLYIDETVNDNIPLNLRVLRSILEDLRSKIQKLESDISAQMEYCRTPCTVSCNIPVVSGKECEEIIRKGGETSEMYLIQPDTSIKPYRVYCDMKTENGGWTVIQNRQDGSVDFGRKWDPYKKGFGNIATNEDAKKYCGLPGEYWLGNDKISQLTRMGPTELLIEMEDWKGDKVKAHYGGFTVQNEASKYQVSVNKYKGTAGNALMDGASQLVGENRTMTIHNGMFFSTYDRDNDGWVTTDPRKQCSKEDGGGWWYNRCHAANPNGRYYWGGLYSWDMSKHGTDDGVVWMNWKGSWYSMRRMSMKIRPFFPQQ
T1 sequence (looked up) 3: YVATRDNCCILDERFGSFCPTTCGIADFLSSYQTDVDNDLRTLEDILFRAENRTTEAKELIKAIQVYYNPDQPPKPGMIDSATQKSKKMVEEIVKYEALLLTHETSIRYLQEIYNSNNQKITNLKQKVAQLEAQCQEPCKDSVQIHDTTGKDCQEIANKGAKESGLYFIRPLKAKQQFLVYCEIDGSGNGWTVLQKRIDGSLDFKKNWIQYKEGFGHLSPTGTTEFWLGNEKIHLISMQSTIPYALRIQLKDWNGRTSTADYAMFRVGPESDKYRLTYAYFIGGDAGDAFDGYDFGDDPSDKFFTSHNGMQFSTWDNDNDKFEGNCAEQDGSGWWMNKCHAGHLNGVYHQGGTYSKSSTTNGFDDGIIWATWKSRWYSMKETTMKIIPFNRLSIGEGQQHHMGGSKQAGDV

[1] = molecular target: T2, mouse fibrin (mouse fibrinogen coated on the plate and treated with thrombin) (mouse, UniProt E9PV24 37-557; Q8K0E8 35-481; Q8VCM7 26-436); experiment: ELISA at 200 nM on mouse fibrin plate, HRP-protein L
T2 construct: Made on the plate from mouse fibrinogen (Sigma) with thrombin
T2 sequence (looked up) 1: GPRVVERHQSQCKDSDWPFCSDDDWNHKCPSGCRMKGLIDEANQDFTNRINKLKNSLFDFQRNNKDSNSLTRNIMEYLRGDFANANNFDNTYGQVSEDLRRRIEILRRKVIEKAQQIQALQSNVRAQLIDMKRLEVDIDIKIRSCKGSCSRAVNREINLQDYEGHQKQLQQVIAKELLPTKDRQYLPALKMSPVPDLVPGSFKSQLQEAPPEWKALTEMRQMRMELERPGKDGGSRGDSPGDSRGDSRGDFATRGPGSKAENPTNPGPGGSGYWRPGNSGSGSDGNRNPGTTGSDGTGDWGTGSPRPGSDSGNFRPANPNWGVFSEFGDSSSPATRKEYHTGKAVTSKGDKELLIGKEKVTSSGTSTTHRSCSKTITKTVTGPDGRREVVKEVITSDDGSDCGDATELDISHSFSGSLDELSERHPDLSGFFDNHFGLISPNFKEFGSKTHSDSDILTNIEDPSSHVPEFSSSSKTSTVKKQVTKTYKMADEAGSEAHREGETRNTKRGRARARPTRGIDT
T2 sequence (looked up) 2: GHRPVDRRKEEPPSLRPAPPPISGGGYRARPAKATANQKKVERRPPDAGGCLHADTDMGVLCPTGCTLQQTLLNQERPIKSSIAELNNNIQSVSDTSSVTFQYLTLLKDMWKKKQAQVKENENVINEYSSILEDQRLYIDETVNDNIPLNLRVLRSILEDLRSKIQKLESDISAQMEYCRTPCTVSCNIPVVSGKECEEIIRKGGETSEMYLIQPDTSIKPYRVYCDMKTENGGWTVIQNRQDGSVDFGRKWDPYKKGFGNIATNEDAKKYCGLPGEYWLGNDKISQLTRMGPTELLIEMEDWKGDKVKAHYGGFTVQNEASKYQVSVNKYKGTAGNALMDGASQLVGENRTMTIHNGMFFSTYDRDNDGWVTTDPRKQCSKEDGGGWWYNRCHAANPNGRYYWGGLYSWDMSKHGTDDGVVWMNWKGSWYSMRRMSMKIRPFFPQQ
T2 sequence (looked up) 3: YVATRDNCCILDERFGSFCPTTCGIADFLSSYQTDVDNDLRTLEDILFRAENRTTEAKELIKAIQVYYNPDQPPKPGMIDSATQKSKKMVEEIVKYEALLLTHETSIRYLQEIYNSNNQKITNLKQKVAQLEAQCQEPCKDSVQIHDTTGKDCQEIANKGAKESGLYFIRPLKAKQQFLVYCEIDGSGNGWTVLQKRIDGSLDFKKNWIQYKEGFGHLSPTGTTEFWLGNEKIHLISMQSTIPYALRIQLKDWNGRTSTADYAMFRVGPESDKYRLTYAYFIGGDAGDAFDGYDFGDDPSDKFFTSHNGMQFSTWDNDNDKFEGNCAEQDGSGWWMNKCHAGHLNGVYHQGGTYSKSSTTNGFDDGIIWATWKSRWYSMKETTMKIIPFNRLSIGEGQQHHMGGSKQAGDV
Method: The procedures for ELISA analysis were similar to the procedures described in the previous Examples. Briefly, fibrinogen from mouse (Sigma) diluted with PBS was added to a 96-well polystyrene microplate at 100 μL/well, and then the plate was sealed and allowed to stand at 4° C., overnight.
Each fibrin plate was prepared as follows. 100 μL of TBS containing a final concentration of 1.0 U/mL thrombin (Sigma), 2 mM CaCl₂ and 7 mM L-cysteine (Merck) was added to the wells of the fibrinogen plate, which was then washed with TBS and blocked with the buffer (5% non-fat dry milk/PBS). Thereafter, 100 μL of reteplase-(3D5-scFv) at various final concentrations (600 nM, 200 nM, 66 nM, 22 nM, 7.4 nM, 2.5 nM, and 0.8 nM) were added to each well and incubate at room temperature for 1 hour. The plate was than washed for three times, and HRP-conjugated protein L diluted to 1/5000 was added to the wells and incubated for 1 hour at room temperature. The wells were washed three times and added with 100 μL of TMB substrate buffer. 5 minutes later, the color development was stopped with 1 M HCl. The optical density (OD) was measured at 450 nm using a microplate reader.

B1: recombinant reteplase-(3D5 VL-218-VH scFv α fibrin) protein (other)
chain: SYQGNSDCYFGNGSAYRGTHSLTESGASCLPWNSMILIGKVYTAQNPSAQALGLGKHNYCRNPDGDAKPWCHVLKNRRLTWEYCDVPSCSTCGLRQYSQPQFRIKGGLFADIASHPWQAAIFAKHRRSPGERFLCGGILISSCWILSAAHCFQERFPPHHLTVILGRTYRVVPGEEEQKFEVEKYIVHKEFDDDTYDNDIALLQLKSDSSRCAQESSVVRTVCLPPADLQLPDWTECELSGYGKHEALSPFYSERLKEAHVRLYPSSRCTSQHLLNRTVTDNMLCAGDTRSGGPQANLHDACQGDSGGPLVCLNDGRMTLVGIISWGLGCGQKDVPGVYTKVTNYLDWIRDNMRPASGGGGSGGGGSGGGGSDIQMTQSPSSLSASVGDRVTITCRASQDVSNNVAWYQQKPGKAPKLLIFWSPWLYSGVPSRFSGSGSGTDFTLTISSLQPEDFATYYCQQGWDSPVTFGQGTKVEIKRGSTSGSGKPGSGEGSTKGEVQLVESGGGLVQPGGSLRLSCAASGFTISDFGIHWVRQAPGKGLEWVASIWPSGGYTYYADSVKGRFTISADTSKNTAYLQMNSLRAEDTAVYYCARSWFYSWYDYWGQGTLVTVSS
notes: Fusion: reteplase, flexible linker, 3D5 VL, 218 linker, 3D5 VH; also called reteplase-(3D5 scFv); reteplase-(3D5-scFv)
- binding result (mouse fibrinogen): no binding (tested: 200 nM)
- binding result [1]: binds
